In the supplement of paper PMC10567573:

B1: STX5 (parent)
chain: ESTIVELGSIFQQLAHMVKEQEET

Variants of: B1
Assay: protein stability index of a GFP-peptide fusion (GPS, HEK-293T) (PSI 1-6); higher = more stable
Conditions: c terminus: a fixed tail appended
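Further: lentivirally expressed fusions sorted by FACS into six bins by GFP to DsRed ratio, PSI derived from sequencing read proportions per bin multiplied by bin number.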

Protein stability index of substitutions, site by site:
Q21: I 1.64, K 2.6, V 1.73, C 1.91, N 2.12, W 3.33, L 2.67, H 1.97, D 2.4, Y 2.23, T 2.88, R 1.36, F 1.98, S 1.81, P 3.29, E 3.05, A 1.67, G 2.75, M 1.87
E23: K 1.48, Y 1.2, A 1.88, P 2.06, S 1.23, T 1.32, N 1.47, I 2.38, Q 2.5, C 1.83, H 2.11, D 2.19, R 1.77, V 3.06, G 1.28, L 1.42
A15: F 2.09, K 3.1, Q 2.81, M 1.74, I 1.53, R 2.67, W 2.18, Y 1.74, L 1.76, V 2.24, P 4.91, H 3.15, S 2.99, T 3.66, E 4.21, N 3.67, G 3.91
V18: F 1.81, R 3.65, S 4.14, L 1.8, H 3.73, T 3.45, G 4.6, I 2.41, W 2.22, E 4.64, A 3.27, N 4.38, D 5.09, K 4.16, M 2.79, C 2.44, P 4.45, Y 2.44, Q 2.37
E20: T 1.18, G 2.02, A 2.19, W 1.86, N 1.53, Q 1.12, Y 3.75, R 1.76, P 1.61, D 2.78, M 4.03, S 2.08, C 2.54, H 1.62, K 2.86, F 1.98
T24: L 1.5, I 1.78, K 1.83, E 2.12, H 2.42, C 1.62, G 1.97, A 2.17, F 1.6, D 1.89, N 2.88, P 2.77
K19: M 1.9, S 1.97, R 1.85, I 1.59, C 1.41, P 4.08, E 2.92, N 2.95, H 2.44, G 2.76, F 2.31, Y 1.17, Q 2.32, T 2.41, A 1.81, D 4.35
E22: F 2.88, M 2.89, C 2.4, K 2, S 2.44, A 2.75, T 1.39, W 1.53, Y 1.39, D 1.97, I 2.7, Q 2.65, N 1.98, P 1.69, H 1.3, L 5.42, G 1.06
H16: Q 1.33, N 1.97, M 3, P 4.65, L 2.75, K 2.27, T 3.09, G 2.13, E 1.96, S 2.36, A 2.13, V 2.43, R 1.79, F 2.02, D 1.78, I 1.88, Y 1.67
M17: S 3.4, N 4.16, I 2.3, F 2.46, A 2.83, C 3.6, Y 3.29, P 4.59, Q 2.26, W 2.06, D 4.11, G 3.86, H 3.7, E 3.41, K 2.06, R 3, T 4.18, L 1.7
